According to patent US20110182817A1 (NATIONAL UNIVERSITY CORPORATION OKAYAMA UNIVERSITY, published 2011):
Values belong to the binder of their own block, whether it stands above or below them.

Molecular target: T1, human LDL oxidatively modified by copper sulfate (human, UniProt P04114 28-4563, limits assumed, oxidatively modified by copper sulfate)
T1 construct: Lipoprotein particle; also called oxidized LDL
Assay: ELISA on immobilized Cu-oxidized human LDL, anti-mouse IgM-HRP
Method: 50 μl of […] human LDL oxidatively modified by copper sulfate was added to each well of 96-well microtiter plates (Immulon-2), and incubated at 4° C. overnight. After washing with PBS-Tween, the plates were blocked with 0.5% BSA-PBS. Test samples (culture supernatants appropriately diluted with PBS containing 0.1% BSA) were incubated in the plates at room temperature for one hour. After the plates were washed three times with PBS-Tween, an HRP-labeled anti-mouse IgM antibody was incubated in the plates at room temperature for one hour. After the plates were washed three times with PBS-Tween, 0.03% H₂O₂ and 0.1 M citrate buffer […] containing 0.4 mg/ml orthophenylenediamine (OPD) were added to the plates. After ten minutes of incubation, the reaction was stopped by adding an equal volume of 2N H₂SO₄. Absorbance was measured at 490 nm (FIG. 2). FIG. 2 is a graph showing the reactivities of monoclonal antibodies to NLO and oxidized LDL. The monoclonal antibodies were produced by hybridomas of the established five clones.

T1 sequence (P04114 28-4563 limits assumed): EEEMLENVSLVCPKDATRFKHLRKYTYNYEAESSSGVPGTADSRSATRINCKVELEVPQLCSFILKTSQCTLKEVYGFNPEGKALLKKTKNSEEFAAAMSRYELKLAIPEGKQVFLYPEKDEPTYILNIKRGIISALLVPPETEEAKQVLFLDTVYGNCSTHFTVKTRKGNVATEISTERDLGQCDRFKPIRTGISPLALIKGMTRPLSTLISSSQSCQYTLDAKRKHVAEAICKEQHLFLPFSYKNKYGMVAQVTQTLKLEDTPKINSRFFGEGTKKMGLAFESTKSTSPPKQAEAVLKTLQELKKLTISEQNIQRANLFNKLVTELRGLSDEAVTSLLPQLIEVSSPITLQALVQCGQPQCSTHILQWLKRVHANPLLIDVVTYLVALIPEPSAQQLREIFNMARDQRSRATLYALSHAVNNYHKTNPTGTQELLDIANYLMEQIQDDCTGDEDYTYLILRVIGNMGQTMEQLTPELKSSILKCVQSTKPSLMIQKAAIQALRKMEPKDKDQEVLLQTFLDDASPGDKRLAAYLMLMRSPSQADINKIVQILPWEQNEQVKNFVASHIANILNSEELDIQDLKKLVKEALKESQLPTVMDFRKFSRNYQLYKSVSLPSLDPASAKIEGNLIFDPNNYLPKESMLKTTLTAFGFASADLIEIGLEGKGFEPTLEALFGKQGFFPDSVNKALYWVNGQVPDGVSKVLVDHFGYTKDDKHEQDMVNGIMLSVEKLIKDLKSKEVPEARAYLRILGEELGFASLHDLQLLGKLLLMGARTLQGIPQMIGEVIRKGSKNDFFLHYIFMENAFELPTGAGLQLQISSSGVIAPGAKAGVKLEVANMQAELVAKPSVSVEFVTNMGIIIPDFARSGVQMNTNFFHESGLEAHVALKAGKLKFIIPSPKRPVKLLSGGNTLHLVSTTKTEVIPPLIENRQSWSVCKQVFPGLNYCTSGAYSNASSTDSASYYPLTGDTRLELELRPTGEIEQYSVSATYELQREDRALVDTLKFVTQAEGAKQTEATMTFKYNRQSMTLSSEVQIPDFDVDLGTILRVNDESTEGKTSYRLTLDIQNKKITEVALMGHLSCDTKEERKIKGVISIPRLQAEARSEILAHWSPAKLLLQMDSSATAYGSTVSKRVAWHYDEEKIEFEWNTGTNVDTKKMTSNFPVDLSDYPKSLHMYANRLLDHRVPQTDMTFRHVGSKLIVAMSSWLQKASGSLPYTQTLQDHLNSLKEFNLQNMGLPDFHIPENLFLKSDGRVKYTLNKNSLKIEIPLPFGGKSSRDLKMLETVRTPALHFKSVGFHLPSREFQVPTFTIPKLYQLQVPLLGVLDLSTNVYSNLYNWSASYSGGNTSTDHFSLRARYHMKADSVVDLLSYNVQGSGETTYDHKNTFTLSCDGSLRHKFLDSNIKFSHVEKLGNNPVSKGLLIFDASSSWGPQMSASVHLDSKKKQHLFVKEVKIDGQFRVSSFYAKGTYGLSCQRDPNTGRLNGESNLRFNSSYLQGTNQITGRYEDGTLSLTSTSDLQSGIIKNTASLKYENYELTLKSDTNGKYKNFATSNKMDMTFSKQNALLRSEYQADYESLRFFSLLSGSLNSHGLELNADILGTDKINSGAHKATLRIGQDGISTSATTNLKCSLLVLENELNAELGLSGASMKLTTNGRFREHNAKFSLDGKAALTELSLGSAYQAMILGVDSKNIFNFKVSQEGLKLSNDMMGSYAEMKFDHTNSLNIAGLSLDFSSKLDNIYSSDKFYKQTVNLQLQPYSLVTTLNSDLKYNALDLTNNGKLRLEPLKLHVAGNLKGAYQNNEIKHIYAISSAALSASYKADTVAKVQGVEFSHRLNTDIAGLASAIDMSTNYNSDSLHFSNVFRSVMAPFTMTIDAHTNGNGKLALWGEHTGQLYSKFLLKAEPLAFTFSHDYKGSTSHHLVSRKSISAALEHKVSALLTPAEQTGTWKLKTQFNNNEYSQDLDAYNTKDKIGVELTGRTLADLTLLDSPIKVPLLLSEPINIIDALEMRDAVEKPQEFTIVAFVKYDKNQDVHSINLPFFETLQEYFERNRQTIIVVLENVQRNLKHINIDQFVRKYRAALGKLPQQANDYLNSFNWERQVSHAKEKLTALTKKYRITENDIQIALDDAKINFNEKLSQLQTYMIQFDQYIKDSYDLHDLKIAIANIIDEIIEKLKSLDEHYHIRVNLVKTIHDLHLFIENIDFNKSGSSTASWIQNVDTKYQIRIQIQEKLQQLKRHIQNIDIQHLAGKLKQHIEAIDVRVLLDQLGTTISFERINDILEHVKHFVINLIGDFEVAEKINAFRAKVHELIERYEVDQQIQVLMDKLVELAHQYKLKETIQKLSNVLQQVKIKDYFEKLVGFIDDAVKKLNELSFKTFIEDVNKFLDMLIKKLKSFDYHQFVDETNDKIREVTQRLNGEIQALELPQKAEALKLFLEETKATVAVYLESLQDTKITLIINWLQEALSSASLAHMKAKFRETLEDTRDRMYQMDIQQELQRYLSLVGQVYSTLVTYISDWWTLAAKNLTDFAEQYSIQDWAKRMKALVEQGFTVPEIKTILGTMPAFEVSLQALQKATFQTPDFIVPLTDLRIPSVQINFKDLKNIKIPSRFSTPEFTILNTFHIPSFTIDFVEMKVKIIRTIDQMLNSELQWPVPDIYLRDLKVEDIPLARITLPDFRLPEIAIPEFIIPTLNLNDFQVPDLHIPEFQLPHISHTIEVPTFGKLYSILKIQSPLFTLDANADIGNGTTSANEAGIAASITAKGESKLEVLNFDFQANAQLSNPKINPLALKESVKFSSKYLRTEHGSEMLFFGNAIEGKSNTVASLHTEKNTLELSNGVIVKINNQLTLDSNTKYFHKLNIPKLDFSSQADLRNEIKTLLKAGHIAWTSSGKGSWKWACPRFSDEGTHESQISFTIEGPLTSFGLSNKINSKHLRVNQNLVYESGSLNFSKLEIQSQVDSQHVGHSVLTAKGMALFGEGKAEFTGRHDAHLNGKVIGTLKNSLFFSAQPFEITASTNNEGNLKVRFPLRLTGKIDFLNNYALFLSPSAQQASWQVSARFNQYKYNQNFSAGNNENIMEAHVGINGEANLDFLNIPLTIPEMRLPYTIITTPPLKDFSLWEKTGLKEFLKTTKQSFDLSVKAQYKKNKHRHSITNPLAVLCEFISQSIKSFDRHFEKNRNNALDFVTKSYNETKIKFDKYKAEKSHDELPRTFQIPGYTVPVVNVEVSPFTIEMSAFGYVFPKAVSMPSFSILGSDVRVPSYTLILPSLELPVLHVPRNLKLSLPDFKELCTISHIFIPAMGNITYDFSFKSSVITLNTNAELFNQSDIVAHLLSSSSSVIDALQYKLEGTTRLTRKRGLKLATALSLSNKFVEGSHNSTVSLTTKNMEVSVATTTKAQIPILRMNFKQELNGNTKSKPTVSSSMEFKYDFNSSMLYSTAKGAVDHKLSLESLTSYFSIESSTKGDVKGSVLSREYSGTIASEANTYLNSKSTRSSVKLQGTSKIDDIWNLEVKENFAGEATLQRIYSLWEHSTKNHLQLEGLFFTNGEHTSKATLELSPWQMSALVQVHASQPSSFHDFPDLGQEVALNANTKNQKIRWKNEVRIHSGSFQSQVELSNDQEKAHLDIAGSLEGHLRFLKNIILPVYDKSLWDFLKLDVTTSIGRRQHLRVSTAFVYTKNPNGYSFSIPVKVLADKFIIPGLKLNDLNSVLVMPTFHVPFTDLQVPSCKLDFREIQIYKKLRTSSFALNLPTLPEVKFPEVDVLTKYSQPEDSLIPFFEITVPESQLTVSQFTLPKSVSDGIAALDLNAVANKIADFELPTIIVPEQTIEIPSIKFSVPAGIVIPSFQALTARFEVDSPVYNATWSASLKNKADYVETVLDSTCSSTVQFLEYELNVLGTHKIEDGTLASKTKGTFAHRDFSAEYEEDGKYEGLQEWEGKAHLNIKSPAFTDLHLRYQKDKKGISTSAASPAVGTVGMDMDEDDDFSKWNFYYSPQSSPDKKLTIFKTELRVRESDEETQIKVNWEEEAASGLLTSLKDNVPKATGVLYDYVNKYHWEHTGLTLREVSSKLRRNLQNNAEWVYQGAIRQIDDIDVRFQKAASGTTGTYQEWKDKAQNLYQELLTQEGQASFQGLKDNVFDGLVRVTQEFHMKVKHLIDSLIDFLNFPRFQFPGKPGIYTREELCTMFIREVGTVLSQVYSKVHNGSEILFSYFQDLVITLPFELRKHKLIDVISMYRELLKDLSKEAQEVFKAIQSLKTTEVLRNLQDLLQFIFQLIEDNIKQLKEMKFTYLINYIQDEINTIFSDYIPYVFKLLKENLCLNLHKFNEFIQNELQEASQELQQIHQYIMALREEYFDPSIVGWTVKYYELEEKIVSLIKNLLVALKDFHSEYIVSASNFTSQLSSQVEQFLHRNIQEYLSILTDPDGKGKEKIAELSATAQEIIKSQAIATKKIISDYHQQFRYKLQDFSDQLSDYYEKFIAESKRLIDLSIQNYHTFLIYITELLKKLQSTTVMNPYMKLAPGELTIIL

- binding result: no binding
B1: CL56-369 (antibody, IgM, V domains shown)
VH: QVQLQQPGAELVKPGASVKLSCKASGYTFTSYWMHWVKQRPGQGLEWIGEIDPSDSYTNYNQKFKGKATLTVDKSSSTAYMQLSSLTSEDSAVYYCARGDMDAMDYWGQGTSVTVSS
VL: ETTVTQSPASLSMAIGEKVTIRCITSTDIDDDMNWYQQKPGEPPKLLISEGNTLRPGVPSRFSSSGYGTDFVFTIENMLSEDVADYYCLQSDNLPLTFGAGTKLELK
notes: Mouse monoclonal IgM, kappa, from mice immunized with arteriosclerotic plaque homogenate

- binding result: no binding
B2: CL48-139 (antibody, IgM, V domains shown)
VH: EGQLQQSGAEVVKPGASVKLSCTASGFNIKDTYIHWVKQRPEQGLEWIGRIDPTNGNTKYDPEFQGKATITADTSSNTAYLHLSGLTSEDTAVYYCAKGTLFAYWGQGTLVTVSA
VL: DIKMTQSPSSMYASLGERVTFTCKASQDINNYLTWVQQKPGKSPKTLIYRANRLVDGVPSRFSGSGSGQDYSLTISSLEYEDMGIYYCLQYDEFPPTFGGGTKLEIK
notes: as for B1
